± gives the uncertainty stated by the source.
Test: protein stability index of a GFP-peptide fusion (yeast GPS) (PSI 1-4); higher = more stable; sorted into four equal gates, so the index is relative within each strain
Details: pdr5∆
How it was run: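 Mid-log yeast cultures in leucine-free medium, carrying a pooled plasmid library, were sorted into four equal gates by their GFP/Cherry fluorescence ratio. Each plasmid expressed Cherry along with GFP fused upstream of a tiled 17-residue yeast protein peptide. Plasmids recovered from each gate were PCR-amplified and Illumina-sequenced, with reads assigned to strains by barcodes. The protein stability index was obtained by summing each gate's read frequency weighted by its gate number.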
In the case of QRGKWNLKYLDNSNVMT [RGR1], the protein stability index is reported as 2.49 ± 0.084.

Same assay, conditions: san1∆
For PTITLDDVYRPAAESKI [SNF5], the protein stability index was 3.02 ± 0.09.
Sequence PTKTLTTKERKKSRLGN [PRP8] has a protein stability index of 2.91 ± 0.094.
In the case of PTLPTNHNKTKLLKSLK [PRP8], the protein stability index is reported as 1.82 ± 0.076.
PTNCPLRQFKTCPVEVI [BRR2] gave a protein stability index of 3.33 ± 0.063.
Work on PTQITQYTQRLSKLEKA [SRP68] yielded a protein stability index of 2.06 ± 0.079.
In the case of PTSPAYSPTSPSYSPTS [RPO21], the protein stability index is reported as 2.73 ± 0.037.
PTVSLTINLDRFMKGRR [RPC82] showed a protein stability index of 2.62 ± 0.062.
Sequence PVRALIVQAKEPNLAAQ [ECM29] has a protein stability index of 2.51 ± 0.092.
PVSCIIQNDEEYDTPAL [PRP8] gave a protein stability index of 1.92 ± 0.093.
PVSTASYRLLPQINILQ [RPC40] gave a protein stability index of 1.63 ± 0.07.
In the case of PVSVSRIARALKQEGAA [RPL18A], the protein stability index is reported as 2.96 ± 0.12.
Work on PVVQVGIFIKILNDSLI [IRR1] yielded a protein stability index of 1.86 ± 0.067.
PVVRAPTVKYNRKVRAG [RPL13A] gave a protein stability index of 1.98 ± 0.18.
PVYTAQWSATWIAMRRE [PRP8] gave a protein stability index of 1.97 ± 0.089.
Sequence PYAVLSQFYELRDREDW [YJR042W/NUP85] has a protein stability index of 2.31 ± 0.21.
Work on PYLPKHYLVLLVAKFLY [YJR042W/NUP85] yielded a protein stability index of 1.16 ± 0.15.
With PYMPYYYYYHPMNAPTP [DSN1] the protein stability index was 2.64 ± 0.045.
Sequence PYNLNLFPNELYNVMGI [RPC31] has a protein stability index of 2.71 ± 0.086.
In the case of QALRVLRLKPGRKYTTL [RPL16B], the protein stability index is reported as 2.37 ± 0.057.
In the case of QANIQLYSIREDYELSP [PRE1], the protein stability index is reported as 3.01 ± 0.074.
QANSNLTLLERKWVIFI [NUT1] gave a protein stability index of 1.67 ± 0.094.
Sequence QAPSELELQVAKTFIDL [RPS7B] has a protein stability index of 2.89 ± 0.072.
Sequence QAQLRIDDKTQNDELTM [DIS3] has a protein stability index of 2.5 ± 0.073.
With QDDADPMVSVMKMDKSP [RPT2] the protein stability index was 1.29 ± 0.26.
QDGGVTPYSNESGLVNA [RPO21] showed a protein stability index of 2.63 ± 0.058.
Sequence QDLPKINDKRANLMLVM [SRB4] has a protein stability index of 1.83 ± 0.14.
QDLSRNTLGKGQNCLDI [SNU114] gave a protein stability index of 3.28 ± 0.16.
Work on QDNKKIYVHVRRSTPFS [ESC2] yielded a protein stability index of 2.61 ± 0.049.
With QDVIKVLYQSNATHDED [SWP82] the protein stability index was 2.69 ± 0.04.
QEDELDEGTALSRLGLK [RPB10] showed a protein stability index of 3.5 ± 0.058.
For QEETVVEQTAEVTIEDA [RPS12], the protein stability index was 3.19 ± 0.048.
Work on QEIFDANVQRLKEYQSK [RPL13A] yielded a protein stability index of 2.93 ± 0.15.
Sequence QEKNFQTGIFVYQNNIT [RPB5] has a protein stability index of 2.88 ± 0.09.
With QELKLTCVAKKGIAKEH [RPB3] the protein stability index was 2.92 ± 0.1.
In the case of QEMIDILETIFRGARKN [DIB1], the protein stability index is reported as 2.77 ± 0.17.
Work on QENKNIDDENITKLNKE [SRB4] yielded a protein stability index of 3.22 ± 0.052.
In the case of QEQGSFQHILRLLNTNV [RPS18A], the protein stability index is reported as 2.91 ± 0.037.
QEQITLYDHWDKYHEQW [SSN8] gave a protein stability index of 2.84 ± 0.071.
QESFINTMSAWVNMLLI [FAS2] showed a protein stability index of 2.08 ± 0.1.
For QESSSTLSTHSTTTSVN [SIN4], the protein stability index was 3.12 ± 0.028.
With QETASPLSQDELISLRK [YIL149C/MLP2] the protein stability index was 1.89 ± 0.11.
Work on QETEGTNRHTLALETVL [SIR3] yielded a protein stability index of 2.53 ± 0.06.
QFELLSRRWRQRKNIQS [BRR2] showed a protein stability index of 1.55 ± 0.088.
Work on QFEVSDDEKNDKQARKQ [SNF2] yielded a protein stability index of 3.06 ± 0.069.
QFEWHQNSLLTNTHPNF [SNF2] showed a protein stability index of 3.09 ± 0.066.
For QFNAQGVRDINCVNDVL [POP1], the protein stability index was 2.91 ± 0.11.
With QFTLYDRELNEVINQME [SMC3] the protein stability index was 2.94 ± 0.13.
QFTSSLFKALKVILNER [RGR1] showed a protein stability index of 1.83 ± 0.1.
With QGGNNELGTAVGKLFRV [RPL30] the protein stability index was 2.45 ± 0.06.
Sequence QGGVLPNIHQNLLPKKS [HTA1] has a protein stability index of 2.9 ± 0.076.
For QGPVKNTQLHGPSATDP [RGR1], the protein stability index was 2.97 ± 0.053.
Sequence QGSVTVGLRSNTHAVLV [PRE5] has a protein stability index of 1.75 ± 0.07.
QIEGPFLIIVPKSTLDN [ISW2] gave a protein stability index of 2.17 ± 0.088.
QIELSCNERVPLSVATE [SRP72] showed a protein stability index of 2.1 ± 0.087.
In the case of QILQGICKNCSAILLSE [RPO31], the protein stability index is reported as 2.26 ± 0.13.
With QINIMPSLKAHFTEIKL [SIR3] the protein stability index was 2.29 ± 0.057.
Sequence QISIIDIWSISKKRQAE [YML031W/NDC1] has a protein stability index of 2.54 ± 0.053.
For QIYGFEGLNQRNQVQTE [YGR119C/NUP57], the protein stability index was 3.08 ± 0.13.
For QKDQDGRIPLHWSVSFQ [NAS6], the protein stability index was 3 ± 0.13.
With QKETQKVTKIWSKESNY [PRP28] the protein stability index was 2.3 ± 0.047.
For QKMAKAKKQNRPLPQWI [RPL39], the protein stability index was 3 ± 0.081.
Work on QKQLPQKTRVKLLFDHD [ESC2] yielded a protein stability index of 3.03 ± 0.039.
In the case of QKSPKIRDPLTQTGLLQ [RPC82], the protein stability index is reported as 2.02 ± 0.12.
In the case of QKVNAVDSTFQKVSENF [SMC3], the protein stability index is reported as 3.44 ± 0.06.
In the case of QKVQGESHIDSRNNTLN [SIR4], the protein stability index is reported as 3.08 ± 0.057.
In the case of QKYNQIQKQIETIQADL [SMC2], the protein stability index is reported as 2.6 ± 0.047.
Sequence QLAVANEIIRSLSDEVM [SIR4] has a protein stability index of 2.59 ± 0.12.
Sequence QLDFTEFDEQYGTRPLV [SNF2] has a protein stability index of 3.21 ± 0.039.
QLKDMQTIEMITQIVEK [SRB8] gave a protein stability index of 2.94 ± 0.059.
Sequence QLLIIEKEWENAIRIGE [SRP72] has a protein stability index of 2.09 ± 0.12.
QLLQRLNDMNTEISGLK [SMC3] gave a protein stability index of 3.22 ± 0.06.
For QLSQDEHSQVEQTCVKL [SRP72], the protein stability index was 3.1 ± 0.094.
In the case of QLVTREAQIKDWVENEL [FAS2], the protein stability index is reported as 3.39 ± 0.065.
Work on QLYHLEQQKEELTDKLS [SMC1] yielded a protein stability index of 2.78 ± 0.15.
With QMMSKGIGALFTQQELQ [RPC34] the protein stability index was 3.12 ± 0.07.
For QMSDKHATVVPPEEFSN [SRB7], the protein stability index was 2.71 ± 0.059.
With QMSLEANVVDITNDWEQ [YJR042W/NUP85] the protein stability index was 2.92 ± 0.058.
In the case of QMTWRQWLNNALKRSYG [POP8], the protein stability index is reported as 3.56 ± 0.079.
Work on QNDELKFQGVLESEAQK [RPC34] yielded a protein stability index of 3.23 ± 0.061.
With QNIKAPSVKRQKMAELE [PRP8] the protein stability index was 3.3 ± 0.074.
QNNKPSFVFGQAAAKPS [YLR335W/NUP2] gave a protein stability index of 2.2 ± 0.1.
Sequence QNNNTLGGGGLFGQSQQ [YGR119C/NUP57] has a protein stability index of 3.18 ± 0.12.
With QNPMRDLKIEKLVLNIS [RPL11A] the protein stability index was 3.33 ± 0.082.
Work on QNSKEKNGLGLNFSTTA [MED2] yielded a protein stability index of 2.94 ± 0.056.
QNYRLDGRSFDQFRDVE [RRP45] gave a protein stability index of 3.34 ± 0.13.
For QPASYHSVQETNKISPK [SSN2], the protein stability index was 3.08 ± 0.068.
With QPIEKNGDKMPLKFKLG [YJR042W/NUP85] the protein stability index was 2.52 ± 0.086.
In the case of QPKGVILYGPPGTGKTL [RPT6], the protein stability index is reported as 3.3 ± 0.15.
QPPTNVQPTIGQLPQLP [SNF5] showed a protein stability index of 3.09 ± 0.054.
Work on QPQPQPQQQQQHLQFNG [YDL088C/ASM4] yielded a protein stability index of 2.5 ± 0.051.
Sequence QPTIRKDGLKLVGSWKK [RPO21] has a protein stability index of 3.3 ± 0.14.
QQIQEQVLKCKESWDPN [YGR119C/NUP57] gave a protein stability index of 3.33 ± 0.25.
Work on QQKLNTRMQRGHRADVG [REC8] yielded a protein stability index of 2.84 ± 0.15.
For QQLAYDLSISALLGDKI [RPN9], the protein stability index was 2.47 ± 0.075.
Sequence QQLRTWKRQISYFLKLL [SRB8] has a protein stability index of 1.93 ± 0.088.
With QQPHYIQRTRERKKSIG [DSN1] the protein stability index was 2.63 ± 0.048.
For QQQLYGGNNNNNSTGIA [SWI1], the protein stability index was 3.25 ± 0.053.
Work on QQQQQNTNNNDTIATSA [GAL11] yielded a protein stability index of 2.478 ± 0.021.
QQQQQQNGQQPPTTSNL [YML103C/NUP188] gave a protein stability index of 2.617 ± 0.019.
With QQREAVRQLYKGKKYQP [RPL35A] the protein stability index was 2.94 ± 0.14.
QQTAKKLIPKLYRYRFD [ECM29] showed a protein stability index of 2.24 ± 0.14.
QQYVAAGDLRALDTVTN [FAS1] gave a protein stability index of 2.92 ± 0.085.
QRETSGMIVISMENYHL [SRB8] gave a protein stability index of 2.09 ± 0.042.
